Biological target: CD55 on healthy donor erythrocytes (human) (UniProt P08174)
Assay: flow cytometry on healthy donor erythrocytes, mAb at 10 µg/ml, positive control

Chain of UniProt P08174 (P08174 35-353): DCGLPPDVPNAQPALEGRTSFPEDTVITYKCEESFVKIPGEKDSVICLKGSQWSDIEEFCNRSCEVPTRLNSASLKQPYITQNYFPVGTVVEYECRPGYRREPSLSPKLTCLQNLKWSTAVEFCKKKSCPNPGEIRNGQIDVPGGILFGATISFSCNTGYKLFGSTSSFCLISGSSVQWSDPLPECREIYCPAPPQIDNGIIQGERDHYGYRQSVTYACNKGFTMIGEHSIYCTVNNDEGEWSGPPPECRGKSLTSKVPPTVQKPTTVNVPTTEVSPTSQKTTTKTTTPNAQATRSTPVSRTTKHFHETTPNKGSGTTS

## 791T/36 (anti-CD55 mAb) (antibody)
  Gm (geometric mean fluorescence): 202

Source: patent publication US20220324997A1
